Test results taken from patent publication US6071515.

Target: Bovine submaxillary mucin (BSM) (bovine)
Experiment: binding of the 125I-labelled protein to BSM

Row | Substance | Percent Activity (as determined by BSM binding)
1 | ChCC49 Fab | 64 percent
2 | CC49, murine monoclonal antibody specific to TAG-72 (ATCC No. HB9459) | 96 percent
